The values that follow come from patent US20050202008A1 (Genentech, published 2005).

The labels stand for the following.
B1: full-length PRO175 polypeptide on cells (ligand)
chain: MCLSHLENMPLSHSRTQGAQRSSWKLWLFCSIVMLLFLCSFSWLIFIFLQLETAKEPCMAKFGPLPSKWQMASSEPPCVNKVSDWKLEILQNGLYLIYGQVAPNANYNDVAPFEVRLYKNKDMIQTLTNKSKIQNVGGTYELHVGDTIDLIFNSEHQVLKNNTYWGIILLANPQFIS
notes: Human 293 cells were transiently transfected with full-length PRO175, co-transfected with CD4 for gating; also called PRO175 on transfected 293 cells; PRO175 on HUVEC
B2: PRO364-IgG (soluble immunoglobulin fusion protein of the PRO364 extracellular domain) (Fc fusion)
chain: QRPTGGPGCGPGRLLLGTGTDARCCRVHTTRCCRDYPGEECCSEWDCMCVQPEFHCGDPCCTTCRHHPCPPGQGVQSQGKFSFGFQCIDCASGTFSGGHEGHCKPWTDCTQFGFLTVFPGNKTHNAVCVPGSPPAE
notes: Expressed in insect cells with Baculovirus; also called PRO364 immunoadhesin; PRO364 ECD C-terminus IgG-Fc tagged form; not shown: IgG-Fc at the C-terminus
B3: soluble PRO175 polypeptide (PRO175 ECD, E. coli, Met-Gly-His10-enterokinase-site tagged) (ligand)
chain: MGHHHHHHHHHHSSGHIDDDDKHMETAKEPCMAKFGPLPSKWQMASSEPPCVNKVSDWKLEILQNGLYLIYGQVAPNANYNDVAPFEVRLYKNKDMIQTLTNKSKIQNVGGTYELHVGDTIDLIFNSEHQVLKNNTYWGIILLANPQFIS
modifications: labeled with 125I (residues not stated)
notes: also called soluble PRO175 ECD molecule; radioiodinated soluble PRO175 polypeptide
B4: CD95 immunoadhesin (Fc fusion, UniProt P25445 26-173, looked up)
chain: QVTDINSKGLELRKTVTTVETQNLEGLHHDGQFCHKPCPPGERKARDCTVNGDEPDCVPCQEGKEYTDKAHFSSKCRRCRLCDEGHGLEVEINCTRTQNTKCRCKPNFFCNSTVCEHCDPCTKCEHGIIKECTLTSNTKCKEEGSRSN
notes: extracellular domain; also called CD95-IgG; Fas-IgG; not shown: hinge and Fc portion of human IgG; made as described for TNFR1 in Ashkenazi et al. 1991 (IgG1 from)

For test [1], the target named is T1, TNFR1 immunoadhesin (human, UniProt P19438 30-211, limits assumed).
T1 construct: extracellular domain; also called TNFR1-IgG; TNFR 1-IgG; not shown: hinge and Fc portion of human IgG
T1 sequence (looked up): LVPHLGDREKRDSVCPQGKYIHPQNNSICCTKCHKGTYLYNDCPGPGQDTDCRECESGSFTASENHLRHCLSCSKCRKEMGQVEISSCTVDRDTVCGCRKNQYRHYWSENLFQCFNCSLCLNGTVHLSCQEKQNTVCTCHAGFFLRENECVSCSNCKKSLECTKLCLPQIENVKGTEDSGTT
The test is described as follows: FACS on HUVEC (endogenous PRO175). How it is done: (§1) The PRO175 polypeptide was identified in a human umbilical vein endothelial cell (HUVEC) library, and the PRO175 polypeptide transcripts are readily detectable in HUVEC by RT-PCR (data not shown). […] HUVEC were purchased from Cell Systems (Kirkland, Wash.) and grown in a 50:50 mix of Ham=s F 12 and Low Glucose DMEM media containing 10% fetal bovine serum, 2 mM L-glutamine, 10 mM Hepes, and 10 ng/ml basic FGF. Cells were FACS sorted with PBS, PRO364-IgG, TNFR1-IgG or Fas-IgG as a primary antibody and goat anti-human F(ab=)₂ conjugated to phycoerythrin (CalTag, Burlingame, Calif.).

Test [2] has as its target B1. In words: FACS on 293 cells transiently transfected with full-length PRO175. How it is done: In another assay, human 293 cells were transiently transfected with full-length PRO175 and the ability of receptor immunoadhesin constructs for PRO364, TNFR1, HVEM, and DcR1 to bind to those transfected cells was determined by FACS analysis. The 293 cells were maintained in high glucose DMEM media supplemented with 10% fetal bovine serum (FBS), 2 mM glutamine, 100 microgram/ml penicillin, and 100 microgram/ml streptomycin. The transfected cells ([…]) were incubated for 60 minutes at 4° C. in 200 microliters 2% FBS/PBS with 1 microgram of the respective receptor or ligand immunoadhesin. The cells were then washed with 2% FBS/PBS, stained with R-phycoerythrin-conjugated goat anti-human antibody (Jackson Immunoresearch, West Grove, Pa.). Next, the cells were analyzed by FACS. To test the binding of the respective immunoadhesins to the transiently transfected cells, an expression vector (pRK5-CD4; Smith et al., Science, 328:1704-1707 (1987)) for CD4 was co-transfected with PRO175 expression vector (see above). FITC-conjugated anti-CD4 (Pharmingen, San Diego, Calif.) was then used to identify and gate the transfected cell population in the FACS analysis.

The test “CD95 immunoadhesin” deals with B4. In words: co-precipitation with protein A-sepharose, SDS-PAGE, autoradiography. The procedure: (§2) The soluble PRO175 ECD molecule was abeled with ¹²⁵I, for testing its ability to interact with the PRO364 immunoadhesin. For comparison, immunoadhesin constructs were also made of the following TNF receptor family members: CD95, DR4, DR5, TNFR1, TNFR2, and Apo-3. CD95, DR4, DR5, TNFR1, TNFR2, and Apo-3 immunoadhesins were prepared by fusing each receptor's ECD to the hinge and Fc portion of human IgG, as described previously for TNFR1 [Ashkenazi et al., Proc. Natl. Acad. Sci., 88:10535-10539 (1.991)]. The respective TNF receptor family members are described (and relevant references cited) in the Background of the Invention section.
(§3) For the co-precipitation assay, each immunoadhesin (5 microgram) was incubated with ¹²⁵I-labeled soluble PRO175 polypeptide (I microgram) for 1 hour at 24° C., followed by protein A-sepharose for 30 minutes on ice. The reaction mixtures were spun down and washed several times in PBS, boiled in SDS-PAGE buffer containing 20 mM dithiothreitol and then resolved by SDS-PAGE and autoradiography.

The next test concerns the target T2, DR4 immunoadhesin (human, UniProt O00220 24-239, limits assumed).
T2 construct: extracellular domain; also called DR4-IgG; not shown: hinge and Fc portion of human IgG; made as described for TNFR1 in Ashkenazi et al. 1991 (IgG1 from)
T2 sequence (looked up): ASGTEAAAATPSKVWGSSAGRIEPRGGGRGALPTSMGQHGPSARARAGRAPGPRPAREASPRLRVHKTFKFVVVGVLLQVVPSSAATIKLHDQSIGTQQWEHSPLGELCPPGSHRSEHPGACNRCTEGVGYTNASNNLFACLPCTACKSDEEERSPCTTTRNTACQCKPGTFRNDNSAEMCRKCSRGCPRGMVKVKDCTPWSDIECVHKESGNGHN
The description is as above. How it is done: as §2, §3

A further test deals with T3, DR5 immunoadhesin (human, UniProt O14763 56-210, limits assumed).
T3 construct: extracellular domain; also called DR5-IgG; Apo-2; not shown: hinge and Fc portion of human IgG; made as described for TNFR1 in Ashkenazi et al. 1991 (IgG1 from)
Described as above. How it is done:
as §2, §3

Test [3] deals with T1, TNFR1 immunoadhesin. Described as above. How it is done: as §2, §3
A further test deals with T4, TNFR2 immunoadhesin (human, UniProt P20333 23-257, limits assumed).
T4 construct: extracellular domain; also called TNFR2-IgG; not shown: hinge and Fc portion of human IgG; made as described for TNFR1 in Ashkenazi et al. 1991 (IgG1 from)
T4 sequence (looked up): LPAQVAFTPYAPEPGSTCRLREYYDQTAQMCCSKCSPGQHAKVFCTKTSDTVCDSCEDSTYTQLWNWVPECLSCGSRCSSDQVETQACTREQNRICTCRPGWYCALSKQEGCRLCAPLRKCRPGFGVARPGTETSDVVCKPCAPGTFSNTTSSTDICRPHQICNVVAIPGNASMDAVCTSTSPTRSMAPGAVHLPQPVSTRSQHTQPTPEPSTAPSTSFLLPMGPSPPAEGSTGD
The test is described as above. The procedure: as §2, §3

In another test the target is T5, Apo-3 immunoadhesin (human, UniProt Q93038 25-199).
T5 construct: extracellular domain; also called Apo-3-IgG; DR3; not shown: hinge and Fc portion of human IgG; made as described for TNFR1 in Ashkenazi et al. 1991 (IgG1 from)
T5 sequence (looked up): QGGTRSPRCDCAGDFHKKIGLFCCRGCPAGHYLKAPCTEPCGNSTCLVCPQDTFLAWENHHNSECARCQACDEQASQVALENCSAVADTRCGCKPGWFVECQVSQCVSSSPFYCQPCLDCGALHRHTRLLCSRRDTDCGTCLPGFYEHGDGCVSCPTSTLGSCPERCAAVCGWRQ
The test is described as above. How it is done: as §2, §3

Test [4] deals with B1. The test is described as follows: FACS on HUVEC (endogenous PRO175). How it is done:
as §1

For B1, the binding result with TNFR1 immunoadhesin [1] is recorded as “no binding”.

For the molecule B2, the binding result in test [2] is on record as “binds”.

Turning to B3, the binding result in the test with CD95 immunoadhesin, in the test with DR4 immunoadhesin, with DR5 immunoadhesin, with TNFR1 immunoadhesin [3], with TNFR2 immunoadhesin and in the test with Apo-3 immunoadhesin was “no binding” in each case.

For the molecule B4, the binding result in test [4] is listed as “no binding”.
